{
  "source": "paper PMC11643483",
  "about": "“Chip-Scale Aptamer Sandwich Assay Using Optical Waveguide-Assisted Surface-Enhanced Raman Spectroscopy”",
  "binders": {"B1": {"name": "primary (capture) aptamer (ssDNA)", "DNA": "CGTGCAGTACGCCAACCTTTCTCATGCGCTGCCCCTCTTA", "modifications": "5'-amine-spacer 18-spacer 18"}},
  "molecular_target": "cardiac troponin I (cTnI) (UniProt P19429 2-210)",
  "sequence (P19429 2-210)": "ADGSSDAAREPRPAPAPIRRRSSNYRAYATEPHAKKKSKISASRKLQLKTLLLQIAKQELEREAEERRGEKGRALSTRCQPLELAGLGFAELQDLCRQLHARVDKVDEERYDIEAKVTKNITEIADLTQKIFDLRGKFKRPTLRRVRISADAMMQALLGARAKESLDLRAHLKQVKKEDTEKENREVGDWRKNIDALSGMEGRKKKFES",
  "assay": "SERS aptamer sandwich assay on waveguide; 1 ng/mL cTnI stock (25 uL mixed with 50 uL reporter NPs); sandwich with N2-AuNP; no cTnI-free control described; aptamer-AuNPs resuspended in PBS; cTnI incubated 30 min with reporter NPs, then 1 h on waveguide, rinsed with buffer; pH and temperature not stated",
  "conditions": "protein: commercial",
  "data": [
    {"binder": "B1", "values": [
      {"measurement": "binding result", "result": "binds"}
    ]}
  ]
}
